Test [1] deals with 209 bp_CYC1p_T1 promoter. Kind of test: LTTR-mediated activation of GFP expression from 209 bp_CYC1p_T1 reporter promoter in yeast, without ligand. Type of test: cell-based, Saccharomyces cerevisiae. To be noted: LTTR expressed from strong TDH3 promoter. How it is done: (§1) Events were analyzed using FlowJo software (TreeStar Inc.).
The genetic device developed in this study represents to the best of our knowledge the first example of transplanting a prokaryotic transcriptional activator into a eukaryotic chassis and successfully using it to activate gene expression without the need for modifying the protein beyond codon optimization. […] To test the generality of the biosensor design for onboarding other small-molecule binding transcriptional activators as biosensors in yeast we selected four other candidates from the LTTR family; FdeR from Herbaspirillum seropedicae, PcaQ from Sinorhizobium meliloti, ArgP from Escherichia coli, and MdcR from Klebsiella pneumonia, with co-inducers naringenin, protocatechuic acid (PCA), L-arginine, and malonic acid, respectively. In this proof-of-principle study we selected the four candidates based on a minimal set of information, including knowledge about operator sequences, experimental evidence for ligand-inducible control of target operons, and their mode-of-action within native chassis (ie. activation, FIG. 1). Furthermore all of these metabolites can passively diffuse across the yeast plasma membrane, with the exception of malonic acid, which requires the expression of the dicarboxylic acid transporter MAE1 from Schizosaccharomyces pombe. […]

Test [2] concerns the target T1, BenM (Acinetobacter baylyi, UniProt O68014).
T1 sequence (O68014 whole entry, looked up): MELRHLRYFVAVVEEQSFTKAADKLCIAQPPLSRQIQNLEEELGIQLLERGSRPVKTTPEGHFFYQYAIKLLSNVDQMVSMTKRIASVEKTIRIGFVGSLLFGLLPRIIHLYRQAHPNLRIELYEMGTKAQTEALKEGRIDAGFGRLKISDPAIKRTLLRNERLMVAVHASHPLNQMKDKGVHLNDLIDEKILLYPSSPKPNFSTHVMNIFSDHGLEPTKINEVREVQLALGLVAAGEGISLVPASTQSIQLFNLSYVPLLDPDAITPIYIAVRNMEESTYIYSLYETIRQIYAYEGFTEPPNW
Put plainly: CCM-induced GFP expression in yeast strains combining BenM expression cassettes and CYC1p reporter promoter variants (flow cytometry). Also on record: expressed in transfected cells; host or cells: Saccharomyces cerevisiae CEN.PK113-5A, chromosomal integration; promoters TDH3p, TEF1p, RNR2p or REV1p. To be noted: 30° C. vs 37° C. Type of test: cell-based, Saccharomyces cerevisiae.
Source text: Strains, chemicals and media. Saccharomyces cerevisiae CEN.PK102-5B (MATa ura3-52 his3Δ1 leu2-3/112 MAL2-8^c SUC2), CEN.PK113-5A (MATa, trp1 his3Δ1 leu2-3/112 MAL2-8^c SUC2) and CEN.PK113-7D (wild type, MATa MAL2-8^c SUC2) strains were obtained from Peter Kotter (Johann Wolfgang Goethe-University Frankfurt, Germany). In principal any other yeast strains may be used, such as one obtained from public repository EuroScarf. EasyClone plasmids used in this work are described in Jensen, N. B. et al. EasyClone: method for iterative chromosomal integration of multiple genes in Saccharomyces cerevisiae. FEMS Yeast Res. 14, 238-48 (2014). Escherichia coli strain DH5a was used as a host for cloning and plasmid propagation. The chemicals and Pfu TURBO DNA polymerase were commercially obtained (Sigma-Aldrich and Agilent Technologies Inc., respectively). All acids used were >97% in purity. S. cerevisiae cells were grown at 30° C. in synthetic complete medium as well as drop-out media and agar plates were prepared using pre-mixed drop-out powders (Sigma-Aldrich). Mineral medium was freshly prepared as described previously. For all media containing diacids, 1.4 mM of the individual diacids were dissolved in mineral medium and pH adjusted to 4.5 before sterile filtration. […]
as §1

The test system of test [3] is BenO-containing human cytomegalovirus (CMV) promoter. To be noted: 24 h, GFP normalized by RFP; p<0.05 (t-test).
Description: CHO cells were transfected with a plasmid with the BenO-containing human cytomegalovirus (CMV) promoter controlling the expression of GFP as well as an empty vector (− BenM) or a vector expressing BenM (+ BenM). Total GFP expression was measured after 24 h, and normalized by total RFP expression. Average and standard deviation are based on three biological replicates. *; p<0.05 (t-test).
For testing the reporter promoter design with other promoter backbones AND in another eukaryotes, Chinese hamster ovary cells was transformed using the human cytomegalovirus promoter backbone (CMV) instead of the CYC1 promoter backbone used in yeast.
Just as in the case with the yeast design using CYC1 promoter as a backbone, the present inventors put the binding site (benO) for the prokaryotic transcriptional activator BenM 6 bp upstream of the TATA box the CMV promoter and scored reporter gene activity (GFP fluorescence) in the presence and absence of the transcriptional activator BenM.
The subject of test [4] is CYC1 promoter with BenM operator (BenO). To be noted: BenM from TEF1 promoter.
Description: Cells grown for 24 h in control (mineral medium, pH 4.5) or inducing medium (mineral medium pH 4.5+1.4 mM CCM, 1.4 mM protocatechuic acid, 10 mM malonic acid, 0.2 mM naringenin, or 50 mM L-arginine) were diluted into PBS to arrest cell growth. Cells were then analyzed by flow cytometry using a Fortessa flow cytometer (Becton Dickinson) with a blue laser (488 nm), for validation of single strains. For each strain 10,000 single-cell events were recorded. Events were analyzed using FlowJo software (TreeStar Inc.). The fluorescence arithmetic mean of the gated cell population was calculated, and the fold-change determined by dividing the mean fluorescence of the induced (ON) state with the mean fluorescence of the control (OFF) state. For flow cytometry for CCM and naringenin producing cells we tested mean fluorescence intensities from 10,000 cells pr. strain following 72 and 48 h, respectively. The data represent the average of three (n=3) biological replicates and error bars correspond to the standard deviation between these measurements.
Initially, BenO was introduced into the 491 bp CYC1 promoter immediately upstream of one of the two TATA boxes—TATA-1β (designated 491 bp_CYC1p_BenO_T1) or TATA-2α (designated 491 bp_CYC1p_BenO_T2), or upstream of both (designated 491 bp_CYC1p_BenO_T1/T2)(FIG. 2a). Outputs from these engineered promoters were compared by flow cytometry to expression from the native CYC1p (491 bp_CYC1p) using GFP as the reporter (FIG. 1a and FIG. 2a).
For test [5], the target named is T1, BenM. Put plainly: Screening 17 yeast strains with BenO at different positions upstream of TATA1 of 209 bp CYC1p. Type of test: cell-based. Also on record: expressed in transfected cells; promoters TDH3p, TEF1p, RNR2p or REV1p. To be noted: BenM from REV1p, 1.4 mM CCM, 24 h. How it is done:
FIG. 14. Screening 17 yeast strains expressing BenM from the REV1p in combination with CYC1p reporter promoter of 209 bp with BenO placed at different positions upstream of TATA1. The fold induction (mean±s.d.) was calculated by dividing mean fluorescence intensity (MFI) in medium with 1.4 mM CCM by the MFI in control medium as measured by flow cytometry after 24 h of growth for three biological replicates.
In addition to this, the present inventors also tested 17 different positions for positioning of the BenM binding site (benO).

Where two headings read alike, the source gives them in different places.

B1: BenM: CCM-inducible LysR-type transcriptional activator from Acinetobacter sp ADP1, codon-optimized for yeast (protein, UniProt O68014 1-304, looked up)
HTH-type transcriptional …: T1 sequence (O68014 whole entry, looked up)
modifications: codon-optimized for yeast
Consider B1, for which, in test [1], the “activation of GFP expression compared to yeast cells without expression of an LTTR” value worked out at 8.1 ×. Besides, the “dynamic range in output by temperature” value in test [2] is “higher dynamic range in output at 30 °C compared to 37 °C”. For the same molecule, the “reporter (GFP) expression in CHO with vs without BenM” value in test [3] is given as “activates reporter expression”. In addition, the “induction of expression compared to promoter activity without co-expression of BenM” value was determined as 5 fold in test [4] (491 bp_CYC1p_BenO_T1/T2, no CCM) and 20 fold in test [4] (491 bp_CYC1p_BenO_T1, no CCM). Moreover, the “reduction in expression upon co-expression of BenM” value in test [4] (491 bp_CYC1p_BenO_T2, no CCM) worked out at 30%. For the same molecule, the “effect of BenM on expression of native CYC1p without BenO” value in test [4] (native 491 bp CYC1p) is recorded as “did not increase expression”. Further, in test [5], the “response with BenO at 17 different positions upstream of TATA box” value is given as “Only position 6 upstream of the TATA box gave a significant response”.

Source of the values: patent publication US20190185865A1, “USE OF PROKARYOTIC TRANSCRIPTIONAL ACTIVATORS AS METABOLITE BIOSENSORS IN EUKARYOTIC CELLS” (Danmarks Tekniske Universitet, priority 2016, published 2019).
